Data: patent US20170102390A1

Columns and labels:
[1] = molecular target: CK8/18 Ab (mouse antibody detected by the secondary anti-mouse antibody); assay: microscopy count on SKBR3 cells; 80 uL anti-mouse IgG-biotin, 7.5 uL Mag-Strept, 0 uL Mag-anti FITC
[2] = molecular target: CK8/18 Ab (mouse antibody detected by the secondary anti-mouse antibody); assay: microscopy count on SKBR3 cells; 80 uL anti-mouse IgG-biotin, 7.5 uL Mag-Strept, 7.5 uL Mag-anti FITC

Carrier particles per cancer cell (carrier particles per cancer cell) [1]: 133
Carrier particles per cancer cell (carrier particles per cancer cell) [2]: 1110
Substance: Secondary antibody-biotin = goat anti-mouse IgG biotin (whole molecule)-Biotin
